This is an account of results in patent publication US20240108738A1 (Bicycle, published 2024).

Numbered stars: 1 amine (or outer) side, 2 acyl side, 3 side chain; on linkers, the order of the positions; unused ones are H or OH. Bridge positions count the residues as written; N and C are the ends. Square brackets hold non-standard residues; d marks the D form. Ends that are not written are not given here. * marks the point of attachment. TATA = O=C(CC[*:1])N1CN(C(=O)CC[*:2])CN(C(=O)CC[*:3])C1; Pent4ynoyl = C#CCCC(=O)*; PYA = not defined here

The target of experiment [1] is T1, human NKp46 on cells (CHO-K1/NKp46 cells; CD56+ NK cells of human PBMCs) (human, UniProt O76036 22-304).
T1 construct: whole, on cells; also called NCR1; CD355
T1 sequence (O76036 22-304): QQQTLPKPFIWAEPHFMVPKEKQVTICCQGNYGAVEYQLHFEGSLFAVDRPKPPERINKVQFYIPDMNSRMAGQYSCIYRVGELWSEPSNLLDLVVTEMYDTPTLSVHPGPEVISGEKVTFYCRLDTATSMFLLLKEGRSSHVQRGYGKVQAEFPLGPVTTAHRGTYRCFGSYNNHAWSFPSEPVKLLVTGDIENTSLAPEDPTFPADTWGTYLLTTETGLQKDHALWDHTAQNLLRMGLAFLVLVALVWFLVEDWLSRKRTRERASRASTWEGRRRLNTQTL
Put plainly: Kd,app, flow cytometry CHO-K1/NKp46. The protocol:
Plates were then incubated for 1 hour at room temperature in the dark. Post-incubation, the plates were centrifuged at 500 rpm for 5 minutes and supernatant discarded. Samples were then washed twice in 200 μL of 1× phosphate buffer saline (PBS; Gibco™ 10-010-023) at 500 rpm for 5 minutes. Cells were resuspended in 100 μL of PBS and transferred to a new 96-well V-bottom polypropylene plate (Greiner Bio-One 651201). Plates were centrifuged at 500 rpm for 5 minutes and supernatant discarded.
Preparation of samples for flow cytometry: Zombie Violet™ Fixable Viability Dye (BioLegend® 423113) was prepared as a 1:1000 dilution in PBS and 100 μL of viability dye was added to each well and incubated in the dark at 4° C. for 30 minutes. To ensure NKp46 expression, untreated CHO-K1/NKp46 cells were stained with either anti-human NKp46 or an isotype control. Antibody cocktails were prepared by diluting 1.5 μL of either, PE anti-human NKp46 (BioLegend® 331908; clone 9E2) or PE isotype control IgG1, K (BioLegend® 400112), per 100 μL of stain buffer (1×PBS supplemented with 2% FBS). Cells were resuspended in master mix cocktail (100 μL) and incubated at 4° C. for 30 minutes in the dark. Subsequently, cells were washed 3 times in 100 μL of stain buffer for 5 minutes at 500 rpm and supernatant was discarded. Cells resuspended in 200 μL of stain buffer were kept at 4° C. and in the dark until read by BD FACSCelesta™ flow cytometer.
The binding affinity of the bicyclic peptides were calculated using a four-parameter logistic regression using Prism GraphPad software.
Background: Flow cytometry measures light scatter and fluorescence of single cells or particles in a stream.

Experiment [2] deals with T1, human NKp46 on cells (CHO-K1/NKp46 …). The experiment in a line: Kd,app, flow cytometry, total CD56 population of human PBMCs. The protocol: Cells were resuspended in master mix cocktail (100 μL) and incubated at 4° C. for 30 minutes in the dark. Subsequently, cells were washed 3 times in 100 μL of stain buffer for 5 minutes at 500 rpm and supernatant was discarded.

In experiment [3] the target is T2, recombinant human NKp46-Fc fusion biotinylated via Avi-tag (human, UniProt O76036 22-255, limits assumed, biotin on Avi-tag).
T2 construct: also called biotinylated NKp46
T2 sequence (O76036 22-255 limits assumed): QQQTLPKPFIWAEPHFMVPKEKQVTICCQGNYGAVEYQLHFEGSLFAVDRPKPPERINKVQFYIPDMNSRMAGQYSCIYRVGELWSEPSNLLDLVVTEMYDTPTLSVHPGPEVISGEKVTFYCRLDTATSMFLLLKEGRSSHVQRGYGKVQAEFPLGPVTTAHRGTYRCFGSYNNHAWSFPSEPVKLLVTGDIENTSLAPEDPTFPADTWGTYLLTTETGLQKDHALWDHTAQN
The experiment in a line: SPR Method 1. The protocol: SPR experiments were performed to determine kₐ (M⁻¹s⁻¹), kd (s⁻¹), KD (nM) values (where measurable) of various bicyclic peptides to immobilised NKp46.
For analysis of peptide binding to NKp46, a Biacore 3000 instrument was used with a Cytiva Streptavidin chip. Capture of the protein (recombinant human NKp46-Fc fusion biotinylated via Avi-tag) was carried out at 25° C. with HBS-N (10 mM HEPES, 0.15 M NaCl, pH 7.4) as the running buffer and biotinylated NKp46 was captured to a level of 400-800 RU using a dilution of protein to 0.2 μM in buffer. Buffer was then changed to PBS/0.05% Tween 20 and a dilution series of the peptides was prepared in this buffer with a final DMSO concentration of 0.5% with a top peptide concentration of 100 nM-5000 nM and 6 further 2 or 3-fold dilutions. The SPR analysis was run at 25° C. and a flow rate of 50 μl/min with 60 seconds association and 200-400 seconds dissociation time. Data were corrected for DMSO excluded volume effects. All data were double-referenced for blank injections and reference surface using standard processing procedures and data processing and kinetic fitting were performed using Scrubber software, version 2.0c (BioLogic Software). Data were fitted using simple 1:1 binding model allowing for mass transport effects where appropriate.

The target in experiment [4] is T3, Human NKp46 Fc tag (Acro Biosystems, NC1-H5257) (human, UniProt O76036 22-255).
T3 construct: bought; also called Fc-tagged human NKp46
T3 sequence (O76036 22-255 limits assumed): as above
Put plainly: SPR Method 1 and/or 2. In short, it runs like this: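 Fc-tagged human NKp46 captured on anti-human IgG surface (500–1000 RU); compounds run in PBS-P+ with 2% DMSO at 25 °C, 50 μL/min, 60 s association, 400 s dissociation. Double-referenced, DMSO-corrected; KD from steady-state 1:1 fit, kinetic constants from kinetic 1:1 fit where appropriate.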

The molecule ACYLPDWLCGDEYCA[dK](Pent4ynoyl)-NH2 (linker 2-9-14 via TATA; not fully specified; also: AF488 label on linker, homodimer of BCY15013; scaffold TATA) [BCY15455] returned a Kd in experiment [1] of 2.25 nM.

B1: BCY15663 (peptide)
peptide: ACYLPDYLCGDEYCAK
modifications: not fully specified; C-terminal D-Lys(PYA) joined to N-(amine-PEG2)-N-bis(PEG3-azide) linker carrying AF488
notes: homodimer of BCY15452; scaffold TATA
Regarding B1, the Kd is 0.3 nM in experiment [1] and 0.028 nM in experiment [2]. On to ACDLTTHNCQWGICAK(PYA) (linker 2-9-14 via TATA (inferred); reading uncertain, scaffold TATA) [BCY15686], for which, in experiment [3], the Kd came out at 276 nM. For the molecule ACNLQAPCMQTGKVCAK (C-terminal Lys(PYA), scaffold TATA) [BCY15687], the results for the Kd in experiment [4] and in experiment [3] were 783 nM and 960 nM, respectively.

As to ACYLPDYLCGDEYCAK (C-terminal D-Lys(PYA), scaffold TATA) [BCY15452], the Kd in experiment [4] amounted to 13 nM; in experiment [3], 27 nM.

B2: BCY15013 (peptide)
peptide: ACYLPDWLCGDEYCA[dK](Pent4ynoyl)-NH2
modifications: linker 2-9-14 via TATA; N-terminus assumed
SMILES: C#CCCC(=O)NCCCC[C@@H](NC(=O)[C@H](C)NC(=O)[C@@H]1CSCCC(=O)N2CN3CN(C2)C(=O)CCSC[C@H](NC(=O)[C@H](CC(C)C)NC(=O)[C@H](Cc2c[nH]c4ccccc24)NC(=O)[C@H](CC(=O)O)NC(=O)[C@@H]2CCCN2C(=O)[C@H](CC(C)C)NC(=O)[C@H](Cc2ccc(O)cc2)NC(=O)[C@@H](NC(=O)[C@H](C)N)CSCCC3=O)C(=O)NCC(=O)N[C@@H](CC(=O)O)C(=O)N[C@@H](CCC(=O)O)C(=O)N[C@@H](Cc2ccc(O)cc2)C(=O)N1)C(N)=O
notes: scaffold TATA
For B2, the Kd in experiment [4] is 59 nM; in experiment [3], 138 nM.
